Laboratory results taken from US12186374B2 (Sanofi-Aventis Deutschland GmbH, priority 2014, dated 2025).

How the values were obtained:
[1] = system: patients with Type 2 diabetes mellitus (T2DM); test: Pen-related event questionnaire (Example 2); details: on-treatment period
[2] = system: patients with Type 2 diabetes mellitus (T2DM); test: Increased calcitonin reported on AE form (Example 2); set-up: Patients with TEAE of increased calcitonin: dose or concentration left out as unconfirmed
patients with T2DM = test: Treatment-emergent adverse events incl. serious, fatal, leading to discontinuation (Example 3)
[3] = on-treatment period, Safety population
[4] = PT ≥3% in any treatment group, Safety population

With “Gly(A21)-Arg(B31)-Arg(B32)-human insulin [Insulin Glargine]” the “Patients reporting pen-related events, %” value ([1]; Example 2) was 2.1%, the “Patients reporting pen-related events, number” value ([1]; Example 2) was 10 patients and the “Patients with events reported in pen-related event questionnaire: Any pen-related events” value ([1]; Safety population) was 10 (2.1%) Number (%). The “Pen-related events: Associated with a clinical event” value ([1]; Safety population) was 0 Number (%), the “Pen-related events: Not associated with a clinical event” value ([1]; Safety population) was 10 (2.1%) Number (%) and the “Patients with TEAE of increased calcitonin” value ([2]; Example 2) was “One”. For the same substance, the “Events reported on the AE form for increased calcitonin (≥20 ng/L): Blood calcitonin increased” value [2, 3] was 1 (0.2%) n (%), the “Patients with events reported on the AE form for increased calcitonin (≥20 ng/L): Any” value [2, 3] was 1 (0.2%) n (%) and the “Diarrhoea, % of patients” value (patients with T2DM; Example 3) was 2.7%. For the same substance, the “Incidence of gastrointestinal disorder (System organ class) events” value (patients with T2DM; Example 3) was 7.9%, the “Nasopharyngitis, % of patients” value (patients with T2DM; Example 3) was 8.8% and the “Nausea, % of patients” value (patients with T2DM; Example 3) was 0.5%. The “Patients discontinuing due to nausea, number” value (patients with T2DM; Example 3) was “none”, the “Patients reporting treatment-emergent adverse events, %” value (patients with T2DM; Example 3) was 52.3% and the “Patients reporting treatment-emergent adverse events, number” value (patients with T2DM; Example 3) was 191 patients. The “Patients who withdrew from treatment due to TEAEs, %” value (patients with T2DM; Example 3) was 0.8%, the “Patients who withdrew from treatment due to TEAEs, number” value (patients with T2DM; Example 3) was 3 patients and the “Patients with at least 1 TEAE leading to death” value (patients with T2DM; Example 3) was 2 patients. For the same substance, the “Serious TEAEs, % of patients” value (patients with T2DM; Example 3) was 4.9%, the “Serious TEAEs, number of patients” value (patients with T2DM; Example 3) was 18 patients and the “Vomiting, % of patients” value (patients with T2DM; Example 3) was 0.5%. The “Common TEAE, PT Diarrhoea, number of patients” value (patients with T2DM; [4]) was 10 n, the “Common TEAE, PT Diarrhoea, percentage of patients” value (patients with T2DM; [4]) was “(2.7%)” and the “Common TEAE, PT Headache, number of patients” value (patients with T2DM; [4]) was 10 n. The “Common TEAE, PT Headache, percentage of patients” value (patients with T2DM; [4]) was “(2.7%)”, the “Common TEAE, PT Influenza, number of patients” value (patients with T2DM; [4]) was 11 n and the “Common TEAE, PT Influenza, percentage of patients” value (patients with T2DM; [4]) was “(3.0%)”. The “Common TEAE, PT Nasopharyngitis, number of patients” value (patients with T2DM; [4]) was 32 n, the “Common TEAE, PT Nasopharyngitis, percentage of patients” value (patients with T2DM; [4]) was “(8.8%)” and the “Common TEAE, PT Nausea, number of patients” value (patients with T2DM; [4]) was 2 n. The “Common TEAE, PT Nausea, percentage of patients” value (patients with T2DM; [4]) was “(0.5%)”, the “Common TEAE, PT Upper respiratory tract infection, number of patients” value (patients with T2DM; [4]) was 11 n and the “Common TEAE, PT Upper respiratory tract infection, percentage of patients” value (patients with T2DM; [4]) was “(3.0%)”. The “Common TEAE, PT Vomiting, number of patients” value (patients with T2DM; [4]) was 2 n, the “Common TEAE, PT Vomiting, percentage of patients” value (patients with T2DM; [4]) was “(0.5%)” and the “Common TEAE, SOC Gastrointestinal disorders, number of patients” value (patients with T2DM; [4]) was 29 n. For the same substance, the “Common TEAE, SOC Gastrointestinal disorders, percentage of patients” value (patients with T2DM; [4]) was “(7.9%)”, the “Common TEAE, SOC Infections and infestations, number of patients” value (patients with T2DM; [4]) was 112 n and the “Common TEAE, SOC Infections and infestations, percentage of patients” value (patients with T2DM; [4]) was “(30.7%)”. The “Common TEAE, SOC Nervous system disorders, number of patients” value (patients with T2DM; [4]) was 19 n, the “Common TEAE, SOC Nervous system disorders, percentage of patients” value (patients with T2DM; [4]) was “(5.2%)” and the “% of patients experiencing TEAE(s) leading to permanent treatment discontinuation: Cardiopulmonary failure” value (patients with T2DM; PT, Safety population) was “(0.3%)”. The “% of patients experiencing TEAE(s) leading to permanent treatment discontinuation: Gallbladder cancer” value (patients with T2DM; PT, Safety population) was “(0.3%)”, the “% of patients experiencing TEAE(s) leading to permanent treatment discontinuation: Pregnancy” value (patients with T2DM; PT, Safety population) was “(0.3%)” and the “% of patients experiencing serious TEAE(s): Benign prostatic hyperplasia” value (patients with T2DM; PT, Safety population) was “(0.3%)”. The “% of patients experiencing serious TEAE(s): Cardiac failure congestive” value (patients with T2DM; PT, Safety population) was “(0.3%)”, the “% of patients experiencing serious TEAE(s): Cardiopulmonary failure” value (patients with T2DM; PT, Safety population) was “(0.3%)” and the “% of patients experiencing serious TEAE(s): Chest discomfort” value (patients with T2DM; PT, Safety population) was “(0.3%)”. For the same substance, the “% of patients experiencing serious TEAE(s): Cholecystitis acute” value (patients with T2DM; PT, Safety population) was “(0.3%)”, the “% of patients experiencing serious TEAE(s): Gallbladder cancer” value (patients with T2DM; PT, Safety population) was “(0.3%)” and the “% of patients experiencing serious TEAE(s): Glaucoma” value (patients with T2DM; PT, Safety population) was “(0.3%)”. The “% of patients experiencing serious TEAE(s): Hypertension” value (patients with T2DM; PT, Safety population) was “(0.3%)”, the “% of patients experiencing serious TEAE(s): Hypoglycaemia” value (patients with T2DM; PT, Safety population) was “(0.3%)” and the “% of patients experiencing serious TEAE(s): Intervertebral disc protrusion” value (patients with T2DM; PT, Safety population) was “(0.3%)”. For the same substance, the “% of patients experiencing serious TEAE(s): Kaposi’s sarcoma” value (patients with T2DM; PT, Safety population) was “(0.3%)”, the “% of patients experiencing serious TEAE(s): Meniscus injury” value (patients with T2DM; PT, Safety population) was “(0.3%)” and the “% of patients experiencing serious TEAE(s): Non-cardiac chest pain” value (patients with T2DM; PT, Safety population) was “(0.3%)”. The “% of patients experiencing serious TEAE(s): Osteomyelitis” value (patients with T2DM; PT, Safety population) was “(0.3%)”, the “% of patients experiencing serious TEAE(s): Pneumonia” value (patients with T2DM; PT, Safety population) was “(0.3%)” and the “% of patients experiencing serious TEAE(s): Renal impairment” value (patients with T2DM; PT, Safety population) was “(0.3%)”. The “% of patients experiencing serious TEAE(s): Wound infection” value (patients with T2DM; PT, Safety population) was “(0.3%)”, the “Number of patients experiencing TEAE(s) leading to permanent treatment discontinuation: Angina unstable” value (patients with T2DM; PT, Safety population) was 0 and the “Number of patients experiencing TEAE(s) leading to permanent treatment discontinuation: Benign gastric neoplasm” value (patients with T2DM; PT, Safety population) was 0. The “Number of patients experiencing TEAE(s) leading to permanent treatment discontinuation: Cardiopulmonary failure” value (patients with T2DM; PT, Safety population) was 1, the “Number of patients experiencing TEAE(s) leading to permanent treatment discontinuation: Dizziness” value (patients with T2DM; PT, Safety population) was 0 and the “Number of patients experiencing TEAE(s) leading to permanent treatment discontinuation: Gallbladder cancer” value (patients with T2DM; PT, Safety population) was 1. For the same substance, the “Number of patients experiencing TEAE(s) leading to permanent treatment discontinuation: Hypoglycaemic unconsciousness” value (patients with T2DM; PT, Safety population) was 0, the “Number of patients experiencing TEAE(s) leading to permanent treatment discontinuation: Nausea” value (patients with T2DM; PT, Safety population) was 0 and the “Number of patients experiencing TEAE(s) leading to permanent treatment discontinuation: Pneumonia” value (patients with T2DM; PT, Safety population) was 0. The “Number of patients experiencing TEAE(s) leading to permanent treatment discontinuation: Pregnancy” value (patients with T2DM; PT, Safety population) was 1, the “Number of patients experiencing TEAE(s) leading to permanent treatment discontinuation: Weight increased” value (patients with T2DM; PT, Safety population) was 0 and the “Number of patients experiencing serious TEAE(s): Acute myocardial infarction” value (patients with T2DM; PT, Safety population) was 0. The “Number of patients experiencing serious TEAE(s): Angina unstable” value (patients with T2DM; PT, Safety population) was 0, the “Number of patients experiencing serious TEAE(s): Arteriosclerosis coronary artery” value (patients with T2DM; PT, Safety population) was 0 and the “Number of patients experiencing serious TEAE(s): Benign breast neoplasm” value (patients with T2DM; PT, Safety population) was 0. For the same substance, the “Number of patients experiencing serious TEAE(s): Benign gastric neoplasm” value (patients with T2DM; PT, Safety population) was 0, the “Number of patients experiencing serious TEAE(s): Benign prostatic hyperplasia” value (patients with T2DM; PT, Safety population) was 1 and the “Number of patients experiencing serious TEAE(s): Breast cancer” value (patients with T2DM; PT, Safety population) was 0. The “Number of patients experiencing serious TEAE(s): Cardiac failure congestive” value (patients with T2DM; PT, Safety population) was 1, the “Number of patients experiencing serious TEAE(s): Cardiopulmonary failure” value (patients with T2DM; PT, Safety population) was 1 and the “Number of patients experiencing serious TEAE(s): Chest discomfort” value (patients with T2DM; PT, Safety population) was 1. For the same substance, the “Number of patients experiencing serious TEAE(s): Cholecystitis acute” value (patients with T2DM; PT, Safety population) was 1, the “Number of patients experiencing serious TEAE(s): Cholecystitis chronic” value (patients with T2DM; PT, Safety population) was 0 and the “Number of patients experiencing serious TEAE(s): Gallbladder cancer” value (patients with T2DM; PT, Safety population) was 1. The “Number of patients experiencing serious TEAE(s): Glaucoma” value (patients with T2DM; PT, Safety population) was 1.
